From patent CN113045662A (SEEBIO BIOTECHNOLOGY SHANGHAI CO LTD, dated 2021)

Target: T1, PD-L1-Ig-V (UniProt Q9NZQ7 19-134)
T1 construct: domain: Ig-V; also called PD-L1胞外域蛋白; not shown: His-Tag from the pET-28a vector
Assay: non-competitive checkerboard ELISA, mean of 6 K values

T1 sequence (Q9NZQ7 19-134): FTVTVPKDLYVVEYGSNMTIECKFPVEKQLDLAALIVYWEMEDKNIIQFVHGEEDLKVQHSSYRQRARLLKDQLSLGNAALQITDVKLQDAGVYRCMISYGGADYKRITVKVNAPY

B1: PD-L1-Ig-V-VHH 6-21 (VHH)
VHH: DVQLQASGGGLVQAGGSLRLSCAASRMIFSTFSIQDMGWYRQAPGKQRDLVALITSDGSTNYADSVKGRFTISRDNAKSTVYLQMNNLKPEDTAVYYCAATDNVSGGRLLLNIWWMRDMWYNYWGQGTLVTVSS
notes: Nanobody from a synthetic phage display library (pCANTAB5E, M13K07 helper phage); also called 6-21号克隆
Work on B1 yielded a Ka of ~1.93e+08 M⁻¹.
